Assay results taken from article PMC3902929 (Nucleic Acids Research, 2013).

Biological target: the molecule itself
Test: crystal structure

B1: Clostridium thermocellum polynucleotide kinase (CthPnk) mutant D38N (enzyme, UniProt A3DJ38 1-170, looked up)
chain: MKLTIPELSLVVLIGSSGSGKSTFAKKHFKPTEVISSNFCRGLVSDDENDQTVTGAAFDVLHYIVSKRLQLGKLTVVDATNVQESARKPLIEIAKDYHCFPVAVVFNLPEKVCQERNKNRTDRQVEEYVIRKHTQQMKKSIKGLQREGFRYVYILNSPEEVEEVVFERQP
  binding result: binds
